From patent EP1942187B1

Columns and labels:
Test in all cases: cell-based or functional assay
IL10Rb (CRF2-4) (human) = IL10Rb (CRF2-4) (human) (UniProt Q08334)
human zcytor19 (human) = biological target: human zcytor19 (human)
[1] = biological target: zcytoR19 and IL10Rb (CRF2-4) coexpressed on BHK cells (human)

Chain of IL10Rb (CRF2-4) (human) (Q08334 20-325 limits assumed, form in doubt): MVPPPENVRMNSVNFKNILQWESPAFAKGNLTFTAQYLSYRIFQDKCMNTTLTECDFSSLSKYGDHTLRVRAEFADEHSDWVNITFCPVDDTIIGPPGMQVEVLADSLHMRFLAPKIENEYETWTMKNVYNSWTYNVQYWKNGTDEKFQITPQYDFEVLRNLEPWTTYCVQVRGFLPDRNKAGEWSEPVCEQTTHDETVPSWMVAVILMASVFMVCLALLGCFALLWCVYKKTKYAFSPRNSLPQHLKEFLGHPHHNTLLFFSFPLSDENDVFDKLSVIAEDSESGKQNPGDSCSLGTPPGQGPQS

“zcyto21 (from UniProt Q8IU54 20-200) (ligand)” showed an ISRE-luciferase fold induction; wild-type 293 cells; Zcyto21 0.001 ng/ml; + IL10Rb neutralizing antibody (2.5 ug/ml) (fold induction) (IL10Rb (CRF2-4) (human)) of 1.3, an ISRE-luciferase fold induction; wild-type 293 cells; Zcyto21 0.001 ng/ml; no antibody (fold induction) (IL10Rb (CRF2-4) (human)) of 1.2 and an ISRE-luciferase fold induction; wild-type 293 cells; Zcyto21 0.01 ng/ml; + IL10Rb neutralizing antibody (2.5 ug/ml) (fold induction) (IL10Rb (CRF2-4) (human)) of 1.3. It also gave an ISRE-luciferase fold induction; wild-type 293 cells; Zcyto21 0.01 ng/ml; no antibody (fold induction) (IL10Rb (CRF2-4) (human)) of 1.2, an ISRE-luciferase fold induction; wild-type 293 cells; Zcyto21 0.1 ng/ml; + IL10Rb neutralizing antibody (2.5 ug/ml) (fold induction) (IL10Rb (CRF2-4) (human)) of 1.3 and an ISRE-luciferase fold induction; wild-type 293 cells; Zcyto21 0.1 ng/ml; no antibody (fold induction) (IL10Rb (CRF2-4) (human)) of 1.1. It also gave an ISRE-luciferase fold induction; wild-type 293 cells; Zcyto21 1 ng/ml; + IL10Rb neutralizing antibody (2.5 ug/ml) (fold induction) (IL10Rb (CRF2-4) (human)) of 1.3, an ISRE-luciferase fold induction; wild-type 293 cells; Zcyto21 1 ng/ml; no antibody (fold induction) (IL10Rb (CRF2-4) (human)) of 1.5 and an ISRE-luciferase fold induction; wild-type 293 cells; Zcyto21 10 ng/ml; + IL10Rb neutralizing antibody (2.5 ug/ml) (fold induction) (IL10Rb (CRF2-4) (human)) of 1.4. It also gave an ISRE-luciferase fold induction; wild-type 293 cells; Zcyto21 10 ng/ml; no antibody (fold induction) (IL10Rb (CRF2-4) (human)) of 3.2, an ISRE-luciferase fold induction; wild-type 293 cells; Zcyto21 100 ng/ml; + IL10Rb neutralizing antibody (2.5 ug/ml) (fold induction) (IL10Rb (CRF2-4) (human)) of 1.8 and an ISRE-luciferase fold induction; wild-type 293 cells; Zcyto21 100 ng/ml; no antibody (fold induction) (IL10Rb (CRF2-4) (human)) of 4.1. It also gave an ISRE-luciferase fold induction; zcytoR19-overexpressing 293 cells; Zcyto21 0.001 ng/ml; + IL10Rb neutralizing antibody (2.5 ug/ml) (fold induction) (IL10Rb (CRF2-4) (human)) of 1, an ISRE-luciferase fold induction; zcytoR19-overexpressing 293 cells; Zcyto21 0.001 ng/ml; no antibody (fold induction) (IL10Rb (CRF2-4) (human)) of 1.1 and an ISRE-luciferase fold induction; zcytoR19-overexpressing 293 cells; Zcyto21 0.01 ng/ml; + IL10Rb neutralizing antibody (2.5 ug/ml) (fold induction) (IL10Rb (CRF2-4) (human)) of 1.1. It also gave an ISRE-luciferase fold induction; zcytoR19-overexpressing 293 cells; Zcyto21 0.01 ng/ml; no antibody (fold induction) (IL10Rb (CRF2-4) (human)) of 3.5, an ISRE-luciferase fold induction; zcytoR19-overexpressing 293 cells; Zcyto21 0.1 ng/ml; + IL10Rb neutralizing antibody (2.5 ug/ml) (fold induction) (IL10Rb (CRF2-4) (human)) of 1 and an ISRE-luciferase fold induction; zcytoR19-overexpressing 293 cells; Zcyto21 0.1 ng/ml; no antibody (fold induction) (IL10Rb (CRF2-4) (human)) of 1.5. For the same substance, the ISRE-luciferase fold induction; zcytoR19-overexpressing 293 cells; Zcyto21 1 ng/ml; + IL10Rb neutralizing antibody (2.5 ug/ml) (fold induction) (IL10Rb (CRF2-4) (human)) was 5.8, the ISRE-luciferase fold induction; zcytoR19-overexpressing 293 cells; Zcyto21 1 ng/ml; no antibody (fold induction) (IL10Rb (CRF2-4) (human)) was 35 and the ISRE-luciferase fold induction; zcytoR19-overexpressing 293 cells; Zcyto21 10 ng/ml; + IL10Rb neutralizing antibody (2.5 ug/ml) (fold induction) (IL10Rb (CRF2-4) (human)) was 28. It also gave an ISRE-luciferase fold induction; zcytoR19-overexpressing 293 cells; Zcyto21 10 ng/ml; no antibody (fold induction) (IL10Rb (CRF2-4) (human)) of 48, an ISRE-luciferase fold induction; zcytoR19-overexpressing 293 cells; Zcyto21 100 ng/ml; + IL10Rb neutralizing antibody (2.5 ug/ml) (fold induction) (IL10Rb (CRF2-4) (human)) of 31 and an ISRE-luciferase fold induction; zcytoR19-overexpressing 293 cells; Zcyto21 100 ng/ml; no antibody (fold induction) (IL10Rb (CRF2-4) (human)) of 45. It also gave an ISRE-luciferase fold induction; 293 cells transfected with ISRE-Luc./Zcytor19; Zcyto21 125ng/ml (fold induction) (human zcytor19 (human)) of 108, an ISRE-luciferase fold induction; BHK cells transfected with zcytoR19 alone; zcyto21 0.001 ng/ml (fold induction) (human zcytor19 (human)) of 1.3 and an ISRE-luciferase fold induction; BHK cells transfected with zcytoR19 alone; zcyto21 0.01 ng/ml (fold induction) (human zcytor19 (human)) of 1.4. For the same substance, the ISRE-luciferase fold induction; BHK cells transfected with zcytoR19 alone; zcyto21 0.1 ng/ml (fold induction) (human zcytor19 (human)) was 1.4, the ISRE-luciferase fold induction; BHK cells transfected with zcytoR19 alone; zcyto21 1 ng/ml (fold induction) (human zcytor19 (human)) was 2 and the ISRE-luciferase fold induction; BHK cells transfected with zcytoR19 alone; zcyto21 10 ng/ml (fold induction) (human zcytor19 (human)) was 2.4. The ISRE-luciferase fold induction; BHK cells transfected with zcytoR19 alone; zcyto21 100 ng/ml (fold induction) (human zcytor19 (human)) was 2.6, the ISRE-luciferase fold induction; BHK cells transfected with zcytoR19 alone; zcyto21 1000 ng/ml (fold induction) (human zcytor19 (human)) was 3.3 and the ISRE-luciferase fold induction; BHK cells transfected with zcytoR19 and IL10Rb (CRF2-4); zcyto21 0.001 ng/ml (fold induction) [1] was 1.3. It also gave an ISRE-luciferase fold induction; BHK cells transfected with zcytoR19 and IL10Rb (CRF2-4); zcyto21 0.01 ng/ml (fold induction) [1] of 1.6, an ISRE-luciferase fold induction; BHK cells transfected with zcytoR19 and IL10Rb (CRF2-4); zcyto21 0.1 ng/ml (fold induction) [1] of 2.2 and an ISRE-luciferase fold induction; BHK cells transfected with zcytoR19 and IL10Rb (CRF2-4); zcyto21 1 ng/ml (fold induction) [1] of 2.5. It also gave an ISRE-luciferase fold induction; BHK cells transfected with zcytoR19 and IL10Rb (CRF2-4); zcyto21 10 ng/ml (fold induction) [1] of 2.6, an ISRE-luciferase fold induction; BHK cells transfected with zcytoR19 and IL10Rb (CRF2-4); zcyto21 100 ng/ml (fold induction) [1] of 2.5 and an ISRE-luciferase fold induction; BHK cells transfected with zcytoR19 and IL10Rb (CRF2-4); zcyto21 1000 ng/ml (fold induction) [1] of 2.2.
zcyto22 (ligand) was tested, and the ISRE-luciferase fold induction; wild-type 293 cells; Zcyto22 0.01 ng/ml; + IL10Rb neutralizing antibody (8 ug/ml) (fold induction) (IL10Rb (CRF2-4) (human)) was 0.9, the ISRE-luciferase fold induction; wild-type 293 cells; Zcyto22 0.01 ng/ml; no antibody (fold induction) (IL10Rb (CRF2-4) (human)) was 0.9 and the ISRE-luciferase fold induction; wild-type 293 cells; Zcyto22 0.1 ng/ml; + IL10Rb neutralizing antibody (8 ug/ml) (fold induction) (IL10Rb (CRF2-4) (human)) was 0.8. The ISRE-luciferase fold induction; wild-type 293 cells; Zcyto22 0.1 ng/ml; no antibody (fold induction) (IL10Rb (CRF2-4) (human)) was 1.2, the ISRE-luciferase fold induction; wild-type 293 cells; Zcyto22 1 ng/ml; + IL10Rb neutralizing antibody (8 ug/ml) (fold induction) (IL10Rb (CRF2-4) (human)) was 0.8 and the ISRE-luciferase fold induction; wild-type 293 cells; Zcyto22 1 ng/ml; no antibody (fold induction) (IL10Rb (CRF2-4) (human)) was 1.8. The ISRE-luciferase fold induction; wild-type 293 cells; Zcyto22 10 ng/ml; + IL10Rb neutralizing antibody (8 ug/ml) (fold induction) (IL10Rb (CRF2-4) (human)) was 1, the ISRE-luciferase fold induction; wild-type 293 cells; Zcyto22 10 ng/ml; no antibody (fold induction) (IL10Rb (CRF2-4) (human)) was 8 and the ISRE-luciferase fold induction; wild-type 293 cells; Zcyto22 100 ng/ml; + IL10Rb neutralizing antibody (8 ug/ml) (fold induction) (IL10Rb (CRF2-4) (human)) was 1.2. The ISRE-luciferase fold induction; wild-type 293 cells; Zcyto22 100 ng/ml; no antibody (fold induction) (IL10Rb (CRF2-4) (human)) was 11, the ISRE-luciferase fold induction; zcytoR19-overexpressing 293 cells; Zcyto22 0.01 ng/ml; + IL10Rb neutralizing antibody (8 ug/ml) (fold induction) (IL10Rb (CRF2-4) (human)) was 1.3 and the ISRE-luciferase fold induction; zcytoR19-overexpressing 293 cells; Zcyto22 0.01 ng/ml; no antibody (fold induction) (IL10Rb (CRF2-4) (human)) was 1. The ISRE-luciferase fold induction; zcytoR19-overexpressing 293 cells; Zcyto22 0.1 ng/ml; + IL10Rb neutralizing antibody (8 ug/ml) (fold induction) (IL10Rb (CRF2-4) (human)) was 1.1, the ISRE-luciferase fold induction; zcytoR19-overexpressing 293 cells; Zcyto22 0.1 ng/ml; no antibody (fold induction) (IL10Rb (CRF2-4) (human)) was 8.4 and the ISRE-luciferase fold induction; zcytoR19-overexpressing 293 cells; Zcyto22 1 ng/ml; + IL10Rb neutralizing antibody (8 ug/ml) (fold induction) (IL10Rb (CRF2-4) (human)) was 2.3. For the same substance, the ISRE-luciferase fold induction; zcytoR19-overexpressing 293 cells; Zcyto22 1 ng/ml; no antibody (fold induction) (IL10Rb (CRF2-4) (human)) was 69, the ISRE-luciferase fold induction; zcytoR19-overexpressing 293 cells; Zcyto22 10 ng/ml; + IL10Rb neutralizing antibody (8 ug/ml) (fold induction) (IL10Rb (CRF2-4) (human)) was 39 and the ISRE-luciferase fold induction; zcytoR19-overexpressing 293 cells; Zcyto22 10 ng/ml; no antibody (fold induction) (IL10Rb (CRF2-4) (human)) was 97. For the same substance, the ISRE-luciferase fold induction; zcytoR19-overexpressing 293 cells; Zcyto22 100 ng/ml; + IL10Rb neutralizing antibody (8 ug/ml) (fold induction) (IL10Rb (CRF2-4) (human)) was 76, the ISRE-luciferase fold induction; zcytoR19-overexpressing 293 cells; Zcyto22 100 ng/ml; no antibody (fold induction) (IL10Rb (CRF2-4) (human)) was 82 and the ISRE-luciferase fold induction; 293 cells transfected with ISRE-Luc./Zcytor19; Zcyto22 125ng/ml (fold induction) (human zcytor19 (human)) was 104. It also gave an ISRE-luciferase fold induction; BHK cells transfected with zcytoR19 alone; zcyto22 0.001 ng/ml (fold induction) (human zcytor19 (human)) of 1.2, an ISRE-luciferase fold induction; BHK cells transfected with zcytoR19 alone; zcyto22 0.01 ng/ml (fold induction) (human zcytor19 (human)) of 1.2 and an ISRE-luciferase fold induction; BHK cells transfected with zcytoR19 alone; zcyto22 0.1 ng/ml (fold induction) (human zcytor19 (human)) of 1.1. The ISRE-luciferase fold induction; BHK cells transfected with zcytoR19 alone; zcyto22 1 ng/ml (fold induction) (human zcytor19 (human)) was 1.5, the ISRE-luciferase fold induction; BHK cells transfected with zcytoR19 alone; zcyto22 10 ng/ml (fold induction) (human zcytor19 (human)) was 1.9 and the ISRE-luciferase fold induction; BHK cells transfected with zcytoR19 alone; zcyto22 100 ng/ml (fold induction) (human zcytor19 (human)) was 2. For the same substance, the ISRE-luciferase fold induction; BHK cells transfected with zcytoR19 alone; zcyto22 1000 ng/ml (fold induction) (human zcytor19 (human)) was 1.8, the ISRE-luciferase fold induction; BHK cells transfected with zcytoR19 and IL10Rb (CRF2-4); zcyto22 0.001 ng/ml (fold induction) [1] was 1.3 and the ISRE-luciferase fold induction; BHK cells transfected with zcytoR19 and IL10Rb (CRF2-4); zcyto22 0.01 ng/ml (fold induction) [1] was 1.7. For the same substance, the ISRE-luciferase fold induction; BHK cells transfected with zcytoR19 and IL10Rb (CRF2-4); zcyto22 0.1 ng/ml (fold induction) [1] was 2.4, the ISRE-luciferase fold induction; BHK cells transfected with zcytoR19 and IL10Rb (CRF2-4); zcyto22 1 ng/ml (fold induction) [1] was 2.7 and the ISRE-luciferase fold induction; BHK cells transfected with zcytoR19 and IL10Rb (CRF2-4); zcyto22 10 ng/ml (fold induction) [1] was 2.7. It also gave an ISRE-luciferase fold induction; BHK cells transfected with zcytoR19 and IL10Rb (CRF2-4); zcyto22 100 ng/ml (fold induction) [1] of 2.2 and an ISRE-luciferase fold induction; BHK cells transfected with zcytoR19 and IL10Rb (CRF2-4); zcyto22 1000 ng/ml (fold induction) [1] of 2.2.
